Blank lines part the entries; values can stand above or below the molecule they belong to.
Assays:
[1] = tested on: Caco-2 cells; test: Cell permeability, flux assay using Caco-2 cells
[2] = target: T1, recombinant human TWEAKR protein (TPP-2305) (Homo sapiens, UniProt Q9NP84); test: Binding affinities by Biacore analysis; details: monovalent
T1 construct: purchased Fitzgerald Inc 30R-AT080
Procedure: Determination of Binding Affinities by Biacore Analysis:
Binding affinities of anti-TWEAKR antibodies were examined using surface plasmon resonance analysis on a Biacore T100 instrument (GE Healthcare Biacore, Inc.). The antibodies were immobilized on a CM5 sensor chip using an indirect capture reagent, anti-human IgG(Fc). […] Anti-TWEAKR antibodies were injected at a concentration of 10 μg/ml at […] for 10 sec.
Sensorgrams were generated after in-line reference cell correction, followed by subtraction of the buffer sample. The dissociation constant (KD) was calculated based on the ratio of association (kon) and dissociation (koff) constants, obtained by fitting sensorgrams using a 1:1 first order binding model.

[3] = target: T2, TWEAKR-Fc WT (TPP-599) (Homo sapiens, UniProt Q9NP84); test: ELISA, effect of TWEAKR-Fc muteins on antibody binding; details: 62 ng/ml TWEAKR-Fc coated, biotinylated IgG from 100 nM
T2 construct: hTNFRSF12 amino acids a28-80-hIgG1-Fc
Procedure: (§1) Effect of TWEAKR-Fc Muteins on the Antibody Affinity
(§2) To this end, the full-length ectodomain (amino acids 28-80) having the individual amino acid substitutions below were expressed and purified as Fc fusion proteins: T33Q; S40R; W42A; M50A; R56P; H60K; L65Q.
(§3) Detection was carried out using streptavidin-HRP and Amplex Red.
(§4) The dose-reaction data were fitted and the IC50s were determined.

[4] = target: T3, TWEAKR-Fc mutein H60K (Homo sapiens, UniProt Q9NP84, H60K); test: as above; details: 62 ng/ml mutein coated, biotinylated IgG from 100 nM
T3 construct: the full-length ectodomain (amino acids 28-80); made in house
Procedure: as §1, §2, §3, §4

[5] = target: T4, TWEAKR-Fc mutein L65Q (Homo sapiens, UniProt Q9NP84, L65Q); test: as above; details: 62 ng/ml mutein coated, biotinylated IgG from 100 nM
T4 construct: the full-length ectodomain (amino acids 28-80); made in house
Procedure: as §1, §2, §3, §4

[6] = target: T5, TWEAKR-Fc mutein M50A (Homo sapiens, UniProt Q9NP84, M50A); test: as above; details: 62 ng/ml mutein coated, biotinylated IgG from 100 nM
T5 construct: the full-length ectodomain (amino acids 28-80); made in house
Procedure: as §1, §2, §3, §4

[7] = target: T6, TWEAKR-Fc mutein R56P (Homo sapiens, UniProt Q9NP84, R56P); test: as above; details: 62 ng/ml mutein coated, biotinylated IgG from 100 nM
T6 construct: the full-length ectodomain (amino acids 28-80); made in house
Procedure: as §1, §2, §3, §4

[8] = target: T7, TWEAKR-Fc mutein S40R (Homo sapiens, UniProt Q9NP84, S40R); test: as above; details: 62 ng/ml mutein coated, biotinylated IgG from 100 nM
T7 construct: the full-length ectodomain (amino acids 28-80); made in house
Procedure: as §1, §2, §3, §4

[9] = target: T8, TWEAKR-Fc mutein T33Q (Homo sapiens, UniProt Q9NP84, T33Q); test: as above; details: 62 ng/ml mutein coated, biotinylated IgG from 100 nM
T8 construct: the full-length ectodomain (amino acids 28-80); made in house
Procedure: as §1, §2, §3, §4

[10] = target: T9, TWEAKR-Fc mutein W42A (Homo sapiens, UniProt Q9NP84, W42A); test: as above; details: 62 ng/ml mutein coated, biotinylated IgG from 100 nM
T9 construct: the full-length ectodomain (amino acids 28-80); made in house
Procedure: as §1, §2, §3, §4

[11] = target: T1, recombinant human TWEAKR protein (TPP-2305); details: published data (WO2009/020933, WO2009/140177, literature); cited from earlier work

Molecule: CC(C)(C)[C@H](c1nn(-c2cc(F)ccc2F)cc1Cc1ccccc1)N(CC[C@H](N)C(=O)NCCC(=O)NCCN1C(=O)CC(SC[C@H](N)C(=O)O)C1=O)C(=O)CO.O=C(O)C(F)(F)F (stereo partly shown) [Example 92]
Papp (B-A) ([1]; Caco-2, 2 hours): 0.4 ×10⁻⁶ cm/s | Efflux ratio ([1]; Papp (B-A) to Papp (A-B), Caco-2): 3

ka [2]: 1.64e+07 M⁻¹ s⁻¹ | kd [2]: 0.0285 s⁻¹ | IC50 [3]: 0.001 to 0.15 nM | IC50 [4]: 0.001 to 0.15 nM | IC50 [5]: 0.001 to 0.15 nM | IC50 [6]: 0.001 to 0.15 nM | IC50 [7]: > 50 nM | IC50 [8]: 0.001 to 0.15 nM | IC50 [9]: 0.001 to 0.15 nM | IC50 [10]: > 50 nM
B1: 18.3.3(TPP-2193): comparative anti-TWEAKR antibody; variable domains from WO2009/020933, constant region added, "resulting in full-length IgGs" (protein)
light: DIVLTQSPASLAVSLGQRATISCKASQSVSTSTYSYMQWYQQRPGQSPKLLIKYASKLDSGVPARFSGSGSGTDFTLNIHPVEEEDTATYYCQHSWELPYTFGGGTRLEIKRADAAPTVSIFPPSSEQLTSGGASVVCFLNNFYPKDINVKWKIDGSERQNGVLNSWTDQDSKDSTYSMSSTLTLTKDEYERHNSYTCEATHKTSTSPIVKSFNRNEC
heavy: EVKLGESGGGLVQPGGSMKLSCVASGFPFTKYWMNWVRQSPEKGLEWVAEIRLKSDNYATHYAESAKGRFTISRDDSRSSVYLQMNNLRAEDTAIYYCSPTYADTMDYWGQGTSVTVSSAKTTAPSVYPLAPVCGDTTGSSVTLGCLVKGYFPEPVTLTWNSGSLSSGVHTFPAVLQSDLYTLSSSVTVTSSTWPSQSITCNVAHPASSTKVDKKIEPRGPTIKPCPPCKCPAPNLLGGPSVFIFPPKIKDVLMISLSPIVTCVVVDVSEDDPDVQISWFVNNVEVHTAQTQTHREDYNSTLRVVSALPIQHQDWMSGKEFKCKVNNKDLPAPIERTISKPKGSVRAPQVYVLPPPEEEMTKKQVTLTCMVTDFMPEDIYVEWTNNGKTELNYKNTEPVLDSDGSYFMYSKLRVEKKNWVERNSYSCSVVHEGLHNHHTTKSFSRTPG
modifications: Mus Musculus
Kd [11]: 0.2 nM

From patent US10022453B2 (BAYER PHARMA AKTIENGESELLSCHAFT, priority 2013, dated 2018)
